Test results published in US20240376208A1 (AFFIMED, published 2024).

T1: BCMA on MM.1S target cells (UniProt Q02223 1-184, limits assumed)
T1 sequence (looked up): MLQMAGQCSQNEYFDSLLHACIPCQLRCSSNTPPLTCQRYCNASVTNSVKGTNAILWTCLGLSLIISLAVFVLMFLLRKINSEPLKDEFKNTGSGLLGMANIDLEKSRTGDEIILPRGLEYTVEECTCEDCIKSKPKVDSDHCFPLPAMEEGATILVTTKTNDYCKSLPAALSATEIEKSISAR


Experiments:
Test in all cases: cell-based or functional assay
[1] = biological target: T1, BCMA on MM.1S target cells
[2] = biological target: T2, EGFR on tumor target cells (MCF-7, Daudi, DK-MG, HCT-116) (UniProt P00533 25-1210, limits assumed)
[3] = biological target: CD16A on primary human NK cells (human, UniProt P08637 17-254)
CD16A on primary human NK cells, sequence (P08637 17-254 limits assumed): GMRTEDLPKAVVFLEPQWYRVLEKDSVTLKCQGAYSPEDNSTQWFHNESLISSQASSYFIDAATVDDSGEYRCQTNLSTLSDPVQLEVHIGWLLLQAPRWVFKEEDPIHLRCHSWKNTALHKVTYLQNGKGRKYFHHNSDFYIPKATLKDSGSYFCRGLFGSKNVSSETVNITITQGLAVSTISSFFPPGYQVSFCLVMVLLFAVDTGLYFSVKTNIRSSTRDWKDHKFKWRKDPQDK

[4] = biological target: T2, EGFR on tumor target cells (MCF-7, …); remark: listed apart in the source

Binder	EC50 [pM], 4 h calcein-release cytotoxicity on BCMA+ MM.1S target cells, NK cells E:T 5:1 [1] [pM]	Emax [%], 4 h calcein-release cytotoxicity on BCMA+ MM.1S target cells, NK cells E:T 5:1 [1] [%]	EC50 [pM], 4 h calcein-release cytotoxicity on MCF-7 target cells, NK cells E:T 5:1 [2] [pM]	Emax [%], 4 h calcein-release cytotoxicity on MCF-7 target cells, NK cells E:T 5:1 [2] [%]	Emax [%], 4 h calcein-release NK cell fratricide assay, E:T 1:1 [3] [%]	EC50 [pM], 4 h calcein-release cytotoxicity on Daudi target cells, NK cells E:T 5:1 [4] [pM]	Emax [%], 4 h calcein-release cytotoxicity on Daudi target cells, NK cells E:T 5:1 [4] [%]
aBi-scDb-Fc_01 (bispecific antibody) chain 1: SYVLTQPSSVSVAPGQTATISCGGHNIGSKNVHWYQQRPGQSPVLVIYQDNKRPSGIPERFSGSNSGNTATLTISGTQAMDEADYYCQVWDNYSVLFGGGTKLTVLGGSGGSQVQLVQSGAEVKKPGESLKVSCKASGYTFTSYYMHWVRQAPGQGLEWMGAIEPMYGSTSYAQKFQGRVTMTRDTSTSTVYMELSSLRSEDTAVYYCARGSAYYYDFADYWGQGTLVTVSSGGSGGSGGSGGSGGSGGSSYVLTQPSSVSVAPGQTATISCGGHNIGSKNVHWYQQRPGQSPVLVIYQDNKRPSGIPERFSGSNSGNTATLTISGTQAMDEADYYCQVWDNYSVLFGGGTKLTVLGGSGGSQVQLVQSGAEVKKPGESLKVSCKASGYTFTSYYMHWVRQAPGQGLEWMGAIEPMYGSTSYAQKFQGRVTMTRDTSTSTVYMELSSLRSEDTAVYYCARGSAYYYDFADYWGQGTLVTVSSGGGGSDKTHTCPPCPAPEFEGGPSVFLFPPKPKDTLMISRTPEVTCVVVAVSHEDPEVKFNWYVDGVEVHNAKTKPREEQYNSTYRVVSVLTVLHQDWLNGKEYKCKVSNKALPAPIEKTISKAKGQPREPQVYTLPPSREEMTKNQVSLTCLVKGFYPSDIAVEWESNGQPENNYKTTPPVLDSDGSFFLTSKLTVDKSRWQQGNVFSCSVMHEALHNHYTQKSLSLSPGAAAGSHHHHHH chain 2: SYVLTQPSSVSVAPGQTATISCGGHNIGSKNVHWYQQRPGQSPVLVIYQDNKRPSGIPERFSGSNSGNTATLTISGTQAMDEADYYCQVWDNYSVLFGGGTKLTVLGGSGGSQVQLVQSGAEVKKPGESLKVSCKASGYTFTSYYMHWVRQAPGQGLEWMGAIEPMYGSTSYAQKFQGRVTMTRDTSTSTVYMELSSLRSEDTAVYYCARGSAYYYDFADYWGQGTLVTVSSGGSGGSGGSGGSGGSGGSSYVLTQPSSVSVAPGQTATISCGGHNIGSKNVHWYQQRPGQSPVLVIYQDNKRPSGIPERFSGSNSGNTATLTISGTQAMDEADYYCQVWDNYSVLFGGGTKLTVLGGSGGSQVQLVQSGAEVKKPGESLKVSCKASGYTFTSYYMHWVRQAPGQGLEWMGAIEPMYGSTSYAQKFQGRVTMTRDTSTSTVYMELSSLRSEDTAVYYCARGSAYYYDFADYWGQGTLVTVSSGGGGSDKTHTCPPCPAPEFEGGPSVFLFPPKPKDTLMISRTPEVTCVVVAVSHEDPEVKFNWYVDGVEVHNAKTKPREEQYNSTYRVVSVLTVLHQDWLNGKEYKCKVSNKALPAPIEKTISKAKGQPREPQVYTLPPSREEMTKNQVSLYCLVKGFYPSDIAVEWESNGQPENNYKTTPPVLDSDGSFFLYSKLTVDKSRWQQGNVFSCSVMHEALHNHYTQKSLSLSPGGGGGSGGGGSEVQLLESGGGLVQPGGSLRLSCAASGFTFSNYDMAWVRQAPGKGLEWVSSISTRGDITSYRDSVKGRFTISRDNSKNTLYLQMNSLRAEDTAVYYCARQDYYTDYMGFAYWGQGTLVTVSSGGGGSGGGGSGGGGSAIQMTQSPSSLSASVGDRVTITCRASEDIYNGLAWYQQKPGKAPKLLIYGASSLQDGVPSRFSGSGSGTEFTLTISSLQPEDEATYYCAGPHKYPLTFGGGTKVEIK	1	46.4	–	–	–	–	–
aBi-scDb-Fc_03 (bispecific antibody) chain 1: DKTHTCPPCPAPEFEGGPSVFLFPPKPKDTLMISRTPEVTCVVVAVSHEDPEVKFNWYVDGVEVHNAKTKPREEQYNSTYRVVSVLTVLHQDWLNGKEYKCKVSNKALPAPIEKTISKAKGQPREPQVYTLPPSREEMTKNQVSLTCLVKGFYPSDIAVEWESNGQPENNYKTTPPVLDSDGSFFLTSKLTVDKSRWQQGNVFSCSVMHEALHNHYTQKSLSLSPGGGGGSGGGGSSYVLTQPSSVSVAPGQTATISCGGHNIGSKNVHWYQQRPGQSPVLVIYQDNKRPSGIPERFSGSNSGNTATLTISGTQAMDEADYYCQVWDNYSVLFGGGTKLTVLGGSGGSQVQLVQSGAEVKKPGESLKVSCKASGYTFTSYYMHWVRQAPGQGLEWMGAIEPMYGSTSYAQKFQGRVTMTRDTSTSTVYMELSSLRSEDTAVYYCARGSAYYYDFADYWGQGTLVTVSSGGSGGSGGSGGSGGSGGSSYVLTQPSSVSVAPGQTATISCGGHNIGSKNVHWYQQRPGQSPVLVIYQDNKRPSGIPERFSGSNSGNTATLTISGTQAMDEADYYCQVWDNYSVLFGGGTKLTVLGGSGGSQVQLVQSGAEVKKPGESLKVSCKASGYTFTSYYMHWVRQAPGQGLEWMGAIEPMYGSTSYAQKFQGRVTMTRDTSTSTVYMELSSLRSEDTAVYYCARGSAYYYDFADYWGQGTLVTVSSAAAGSHHHHHH chain 2: SYVLTQPSSVSVAPGQTATISCGGHNIGSKNVHWYQQRPGQSPVLVIYQDNKRPSGIPERFSGSNSGNTATLTISGTQAMDEADYYCQVWDNYSVLFGGGTKLTVLGGSGGSQVQLVQSGAEVKKPGESLKVSCKASGYTFTSYYMHWVRQAPGQGLEWMGAIEPMYGSTSYAQKFQGRVTMTRDTSTSTVYMELSSLRSEDTAVYYCARGSAYYYDFADYWGQGTLVTVSSGGSGGSGGSGGSGGSGGSSYVLTQPSSVSVAPGQTATISCGGHNIGSKNVHWYQQRPGQSPVLVIYQDNKRPSGIPERFSGSNSGNTATLTISGTQAMDEADYYCQVWDNYSVLFGGGTKLTVLGGSGGSQVQLVQSGAEVKKPGESLKVSCKASGYTFTSYYMHWVRQAPGQGLEWMGAIEPMYGSTSYAQKFQGRVTMTRDTSTSTVYMELSSLRSEDTAVYYCARGSAYYYDFADYWGQGTLVTVSSGGGGSDKTHTCPPCPAPEFEGGPSVFLFPPKPKDTLMISRTPEVTCVVVAVSHEDPEVKFNWYVDGVEVHNAKTKPREEQYNSTYRVVSVLTVLHQDWLNGKEYKCKVSNKALPAPIEKTISKAKGQPREPQVYTLPPSREEMTKNQVSLYCLVKGFYPSDIAVEWESNGQPENNYKTTPPVLDSDGSFFLYSKLTVDKSRWQQGNVFSCSVMHEALHNHYTQKSLSLSPGGGGGSGGGGSEVQLLESGGGLVQPGGSLRLSCAASGFTFSNYDMAWVRQAPGKGLEWVSSISTRGDITSYRDSVKGRFTISRDNSKNTLYLQMNSLRAEDTAVYYCARQDYYTDYMGFAYWGQGTLVTVSSGGGGSGGGGSGGGGSAIQMTQSPSSLSASVGDRVTITCRASEDIYNGLAWYQQKPGKAPKLLIYGASSLQDGVPSRFSGSGSGTEFTLTISSLQPEDEATYYCAGPHKYPLTFGGGTKVEIK	2.4	51	–	–	–	–	–
scFv-IgAb_167 (bispecific antibody) heavy: QVQLQESGPGLVKPSETLSLTCTVSGGSVSSGSYYWSWIRQPPGKGLEWIGYIYYSGSTNYNPSLKSRVTISVDTSKNQFSLKLSSVTAADTAVYYCARNPISIPAFDIWGQGTMVTVSSASTKGPSVFPLAPSSKSTSGGTAALGCLVKDYFPEPVTVSWNSGALTSGVHTFPAVLQSSGLYSLSSVVTVPSSSLGTQTYICNVNHKPSNTKVDKKVEPKSCDKTHTCPPCPAPEFEGGPSVFLFPPKPKDTLMISRTPEVTCVVVAVSHEDPEVKFNWYVDGVEVHNAKTKPREEQYNSTYRVVSVLTVLHQDWLNGKEYKCKVSNKALPAPIEKTISKAKGQPREPQVYTLPPSREEMTKNQVSLTCLVKGFYPSDIAVEWESNGQPENNYKTTPPVLDSDGSFFLYSKLTVDKSRWQQGNVFSCSVMHEALHNHYTQKSLSLSPGGGGGSGGGGSGGGGSGGGGSGGGGSGGGGSSYVLTQPSSVSVAPGQTARITCGGNNIGSKSVHWYQQKPGQAPVLVIYQDKKRPSGIPERFSGSNSGNTATLTISGTQAMDEADYYCQVWDDYIVLFGGGTKLTVLGGSGGSGGSGGSGGSGGSGGSQVQLVQSGAEVKKPGESLKVSCKASGYTFTNYYMQWVRQAPGQGLEWMGIINPSGGVTSYAQKFQGRVTMTRDTSTSTVYMELSSLRSEDTAVYYCARGSAYYYDFADYWGQGTLVTVSS light: QPVLTQPPSVSVAPGKTARITCGGNNIGSKSVHWYQQKPGQAPVLVIYYDSDRPSGIPERFSGSNSGNTATLTISRVEAGDEADYYCQVWDTSSDHVLFGGGTKLTVLGQPKAAPSVTLFPPSSEELQANKATLVCLISDFYPGAVTVAWKADSSPVKAGVETTTPSKQSNNKYAASSYLSLTPEQWKSHRSYSCQVTHEGSTVEKTVAPTECS	–	–	8.8	17.9	2.8	46.8	8
Bi-scDb-IgAb_06 (bispecific antibody) heavy: QVQLQESGPGLVKPSETLSLTCTVSGGSVSSGSYYWSWIRQPPGKGLEWIGYIYYSGSTNYNPSLKSRVTISVDTSKNQFSLKLSSVTAADTAVYYCARNPISIPAFDIWGQGTMVTVSSASTKGPSVFPLAPSSKSTSGGTAALGCLVKDYFPEPVTVSWNSGALTSGVHTFPAVLQSSGLYSLSSVVTVPSSSLGTQTYICNVNHKPSNTKVDKKVEPKSCDKTHTCPPCPAPEFEGGPSVFLFPPKPKDTLMISRTPEVTCVVVAVSHEDPEVKFNWYVDGVEVHNAKTKPREEQYNSTYRVVSVLTVLHQDWLNGKEYKCKVSNKALPAPIEKTISKAKGQPREPQVYTLPPSREEMTKNQVSLTCLVKGFYPSDIAVEWESNGQPENNYKTTPPVLDSDGSFFLYSKLTVDKSRWQQGNVFSCSVMHEALHNHYTQKSLSLSPGGGGGSGGGGSSYVLTQPSSVSVAPGQTATISCGGHNIGSKNVHWYQQRPGQSPVLVIYQDNKRPSGIPERFSGSNSGNTATLTISGTQAMDEADYYCQVWDNYSVLFGGGTKLTVLGGSGGSQVQLVQSGAEVKKPGESLKVSCKASGYTFTSYYMHWVRQAPGQGLEWMGAIEPMYGSTSYAQKFQGRVTMTRDTSTSTVYMELSSLRSEDTAVYYCARGSAYYYDFADYWGQGTLVTVSSGGSGGSGGSGGSGGSGGSSYVLTQPSSVSVAPGQTATISCGGHNIGSKNVHWYQQRPGQSPVLVIYQDNKRPSGIPERFSGSNSGNTATLTISGTQAMDEADYYCQVWDNYSVLFGGGTKLTVLGGSGGSQVQLVQSGAEVKKPGESLKVSCKASGYTFTSYYMHWVRQAPGQGLEWMGAIEPMYGSTSYAQKFQGRVTMTRDTSTSTVYMELSSLRSEDTAVYYCARGSAYYYDFADYWGQGTLVTVSS light: QPVLTQPPSVSVAPGKTARITCGGNNIGSKSVHWYQQKPGQAPVLVIYYDSDRPSGIPERFSGSNSGNTATLTISRVEAGDEADYYCQVWDTSSDHVLFGGGTKLTVLGQPKAAPSVTLFPPSSEELQANKATLVCLISDFYPGAVTVAWKADSSPVKAGVETTTPSKQSNNKYAASSYLSLTPEQWKSHRSYSCQVTHEGSTVEKTVAPTECS	–	–	2.1	25	15	18.6	18.2
